The supplement of paper PMC9170038

Test system: MS2 coat protein
Assay: apparent KD of MS2 coat protein; designed switch direction (-1 OFF switch, 1 ON switch): -1; higher = weaker reporter binding
Procedure, shortened: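 Transcription of designed RNA switches on Illumina chips was done by stalled E. coli RNA polymerase. SNAP-549-labelled MS2 coat protein was then titrated in doubling steps from 0.7 or 1.5 nM to 3 µM, with steps of 0.8–1.5 h at the lowest and 10–20 min at the highest concentration. The per-design median over clusters of curve-fitted normalised fluorescence is reported as apparent KD.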

[1] = Eterna round: R95, input ligand: FMN 200 uM
[2] = Eterna round: R95, input ligand: microRNA oligo, concentration not stated
[3] = Eterna round: R95, input ligand: none
[4] = input ligand: microRNA oligo, concentration not stated

Row | Sequence | apparent KD of MS2 coat protein [1] | apparent KD of MS2 coat protein [2] | apparent KD of MS2 coat protein [3] | apparent KD of MS2 coat protein (input ligand: FMN 200 uM) | apparent KD of MS2 coat protein [4] | apparent KD of MS2 coat protein (input ligand: none)
1 | AGUAACCGUCACGAAAGUGAUGGUUACACAGGCAAAUGUACAUGAGGAUCACCCAUGUCCUCAAUUGCUCGUCUUAU [Sensor 3 - 53] (puzzle: Sensor v3, turn-off variant 2) | 115 nM | 181 nM | 120 nM | – | – | –
2 | AGUAACUAUCACGAAAGUGAUAGUUACACAAGCAGUGAAACAUGAGGAUCACCCAUGUCCUCAUUUGCUCGUCUUAU [Sensor 3 - 25] (puzzle: Sensor v3, turn-off variant 2) | 53.1 nM | 390 nM | 52.2 nM | – | – | –
3 | AGUACAAACACGAAAGUGUUUGUACAAUAAGCUUGUGGAACAUGAGGAUCACCCAUGUCCUCAUAAGCUCGUCUUAU [Mat - Sensor v3 - Turn-off var 2 - D29] (puzzle: Sensor v3, turn-off variant 2) | 15.7 nM | 87.1 nM | 14.5 nM | – | – | –
4 | AGUACUAACACGAAAGUGUUAGUACAAUAAGCUUGUGAAACAUGAGGAUCACCCAUGUCCUCGUAAGCUCGUCUUAU [salish99_TOv2_r3_048] (puzzle: Sensor v3, turn-off variant 2) | 40 nM | 620 nM | 37.7 nM | – | – | –
5 | AGUACUAACACGAAAGUGUUAGUACAAUAAGCUUGUGGUACAUGAGGAUCACCCAUGUCCUCAUAAGCUCGUCUUAU [JL-sv3-2.13 mat747 mod] (puzzle: Sensor v3, turn-off variant 2) | 22.5 nM | 62.2 nM | 20.7 nM | – | – | –
6 | AGUACUAACACGAGAGUGUUAGUACUAUAAGCUUGUGUUACAUGAGGAUCACCCAUGUCCUCAUAAGCUCGUCUUAG [Mat - Sensor v3 - Turn-off var 2 - D67] (puzzle: Sensor v3, turn-off variant 2) | 39.3 nM | 99 nM | 44.6 nM | – | – | –
7 | AGUACUAACACGAGUGUGUUAGUACAAUAAGCUUGUGAAACAUGAGGAUCACCCAUGUCCUCAUAAGCUCGUCUUAU [salish99_TOv2_r3_073] (puzzle: Sensor v3, turn-off variant 2) | 17.8 nM | 516 nM | 15.1 nM | – | – | –
8 | AGUACUAACACGCUAGUGUUAGUACAAUAAGCUUGUGAAACAUGAGGAUCACCCAUGUCCUCAUAAGCUCGUCUUAU [salish99_TOv2_r3_058] (puzzle: Sensor v3, turn-off variant 2) | 16.4 nM | 612 nM | 16.1 nM | – | – | –
9 | AGUACUAACACGGAAGUGUUAGUACUAUAAGCUUGUGUUACAUGAGGAUCACCCAUGUCCUCAUAAGCUCGUCUUAA [Mat - Sensor v3 - Turn-off var 2 - D70] (puzzle: Sensor v3, turn-off variant 2) | 35.1 nM | 127 nM | 36.4 nM | – | – | –
10 | AGUACUAACACGGCAGUGUUAGUACAAUAAGCUUGUGAAACAUGAGGAUCACCCAUGUCCUCAUAAGCUCGUCUUAU [salish99_TOv2_r3_065] (puzzle: Sensor v3, turn-off variant 2) | 18.6 nM | 423 nM | 15.4 nM | – | – | –
11 | AGUACUAACACGGCUGUGUUAGUACAAUAAGCUUGUGAAACAUGAGGAUCACCCAUGUCCUCAUAAGCUCGUCUUAU [salish99_TOv2_r3_078] (puzzle: Sensor v3, turn-off variant 2) | 18 nM | 580 nM | 15.6 nM | – | – | –
12 | AGUACUAACACGGGUGUGUUAGUACAAUAAGCUUGUGAAACAUGAGGAUCACCCAUGUCCUCAUAAGCUCGUCUUAU [salish99_TOv2_r3_075] (Eterna round: R96, puzzle: Sensor v3, turn-off variant 2) | – | – | – | 15.3 nM | 503 nM | 16.6 nM
13 | AGUACUAACACGGGUGUGUUAGUACAAUAAGCUUGUGAAACAUGAGGAUCACCCAUGUCCUCAUAAGCUCGUCUUAU [salish99_TOv2_r3_075] (puzzle: Sensor v3, turn-off variant 2) | 15.4 nM | 926 nM | 14.4 nM | – | – | –
14 | AGUACUACCACGAAAGUGUUAGUACAAUAAGCUUGUGAAACAUGAGGAUCACCCAUGUCCUCAUAAGCUCGUCUUAU [salish99_TOv2_r3_021] (puzzle: Sensor v3, turn-off variant 2) | 16.7 nM | 524 nM | 16.5 nM | – | – | –
15 | AGUACUAUCACGAAAGUGUUAGUACAAUAAGCUUGUGAAACAUGAGGAUCACCCAUGUCCUCAUAAGCUCGUCUUAU [salish99_TOv2_r3_019] (Eterna round: R96, puzzle: Sensor v3, turn-off variant 2) | – | – | – | 15.8 nM | 467 nM | 17.8 nM
16 | AGUACUAUCACGAAAGUGUUAGUACAAUAAGCUUGUGAAACAUGAGGAUCACCCAUGUCCUCAUAAGCUCGUCUUAU [salish99_TOv2_r3_019] (puzzle: Sensor v3, turn-off variant 2) | 16.9 nM | 868 nM | 15.7 nM | – | – | –
17 | AGUACUAUGCGAGCUGACUUGCGUAGUGCAGCAGGUGUAACAUGAGGAUCACCCAUGUCCUCAUUUGCUCGUCUUAA [Mat - Sensor v3 - Turn-off var 2 - D9] (puzzle: Sensor v3, turn-off variant 2) | 240 nM | 288 nM | 235 nM | – | – | –
18 | AGUACUCUCACGAAAGUGAGAGUACAAAAAGCAAGUGAAACAUGAGGAUCACCCAUGUCCUCAUUUGCUCGUCUUAU [Mat - Sensor v2 -ver2- JL mod - D88] (Eterna round: R96, puzzle: Sensor v2, turn-off variant 2) | – | – | – | 11.8 nM | 413 nM | 14.4 nM
19 | AGUAGGUCUACCUUGGUGGAUCUGCAUUUUUGCAGGUGUACAUGAGGAUCACCCAUGUCCUCAUUUGCUCGUCUUAU [JL turnoff v2 99.30] (Eterna round: R96, puzzle: Sensor v3, turn-off variant 2) | – | – | – | 555 nM | 599 nM | 508 nM
20 | AGUAGGUCUACCUUGGUGGAUCUGCAUUUUUGCAGGUGUACAUGAGGAUCACCCAUGUCCUCAUUUGCUCGUCUUAU [JL turnoff v2 99.30] (puzzle: Sensor v3, turn-off variant 2) | 488 nM | 629 nM | 473 nM | – | – | –
21 | AGUAGUAGUGUCCGAUCCUACAUGAGGAUCACCCAUGUAGCUAGACGUGCACGCGAUGCUCGUCAGACUACCAGAUG [salish99_TOv1_r3_046] (puzzle: Sensor v3, turn-off variant 1) | 83.7 nM | 88.7 nM | 129 nM | – | – | –
22 | AGUAUGCGGCAGGAUAUCCAUCCGCGGUGAGGUGGAGAAGGGCUGACAUGAGGAUCACCCAUGUGCGUCCUGUA [salish99_ex6_r4_027] (Eterna round: R97, puzzle: Exclusion 6) | – | – | – | 29.4 nM | – | 21 nM
